Data: patent publication US20150111836A1, “CELLULAR APOBEC3 PROTEINS AND MODULATORS THEREOF FOR REGULATING DNA REPAIR PROCESSES AND TREATING PROLIFERATIVE DISEASES” (priority 2012, published 2015)

Key:
[1] = molecular target: T1, purified recombinant A3G-His6 (human APOBEC3G with C-terminal Myc-His6 tag, expressed in 293T cells) (human), Q9HC16; assay: cell-based or functional assay
[2] = molecular target: T1, purified recombinant A3G-His6 (human …)

T1 sequence (Q9HC16 whole entry): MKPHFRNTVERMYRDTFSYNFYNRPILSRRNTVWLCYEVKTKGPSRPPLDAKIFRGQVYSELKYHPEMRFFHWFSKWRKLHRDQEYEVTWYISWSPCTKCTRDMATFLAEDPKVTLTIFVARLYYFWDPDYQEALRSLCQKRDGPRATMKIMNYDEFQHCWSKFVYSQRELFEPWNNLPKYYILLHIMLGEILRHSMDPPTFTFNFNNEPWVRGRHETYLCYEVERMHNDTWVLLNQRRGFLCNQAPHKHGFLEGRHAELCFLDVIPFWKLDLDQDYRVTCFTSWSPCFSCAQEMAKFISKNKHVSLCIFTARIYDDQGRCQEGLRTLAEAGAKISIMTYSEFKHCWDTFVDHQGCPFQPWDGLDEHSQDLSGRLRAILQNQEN

Row | Binder | IC50 of inhibition of A3G deaminase activity [1] | inhibition of A3G deaminase activity [1] | K'I [2] | Ki [2] | IC50 of inhibition of deaminase activity of purified A3G (experimental repeat) [1]
1 | QLIHLYYFDCFSESA (modifications not checked) [Vif105-119 peptide] | 0.1 µM | 1 µM | 92 nM | 0.068 µM | –
2 | VKHHMYISGKAKGWF (modifications not checked) [Vif25-39 peptide] | 0.6 µM | 1 µM | 250 nM | – | 1 µM
